Reference: publication PMC7055370, “Structure of the MICU1–MICU2 heterodimer provides insights into the gatekeeping threshold shift” (IUCrJ, 2020)

Biological target: the molecule itself
Assay: crystal structure; apo MICU1 ΔC - MICU2 ΔC (SeMet) mixed at a 1:1 molar ratio; crystals at 20°C in 20%(w/v) PEG 3350, 0.2 M ammonium citrate tribasic pH 7.5; 3.1 Å, SAD

B1: human MICU2 ΔC helix (residues 84–401), selenomethionine derivative (domain or fragment, UniProt Q8IYU8 84-401, looked up)
chain: SLRKQRFMQFSSLEHEGEYYMTPRDFLFSVMFEQMERKTSVKKLTKKDIEDTLSGIQTAGCGSTFFRDLGDKGLISYTEYLFLLTILTKPHSGFHVAFKMLDTDGNEMIEKREFFKLQKIISKQDDLMTVKTNETGYQEAIVKEPEINTTLQMRFFGKRGQRKLHYKEFRRFMENLQTEIQEMEFLQFSKGLSFMRKEDFAEWLLFFTNTENKDIYWKNVREKLSAGESISLDEFKSFCHFTTHLEDFAIAMQMFSLAHRPVRLAEFKRAVKVATGQELSNNILDTVFKIFDLDGDECLSHEEFLGVLKNRMHRGLWV
modifications: selenomethionine (SeMet) derivative
notes: human MICU2 (mitochondrial calcium uptake protein 2), residues 84-401, without the C-terminal helix; pCold II vector with 6x His tag at the N terminus; also called mitochondrial calcium uptake protein 2; source: E. coli B834(DE3), purified (Ni-IDA, SEC); not shown: His6, N-terminal, kept
  binding result: binds
